Source: patent US20240336900A1, “METHODS AND COMPOSITIONS RELATED TO MODIFIED METHYLTRANSFERASES AND ENGINEERED BIOSENSORS” (BOARD OF REGENTS, THE UNIVERSITY OF TEXAS SYSTEM, priority 2023, published 2024)

Tests used:
[1] = Sensitivity and selectivity of evolved RamR sensor variants; assay type: cell-based, Escherichia coli
Method: Cell culture (20 μl) bearing the sensor library was seeded into 5 ml fresh LB containing appropriate antibiotics, 100 μg ml-1 zeocin (Thermo Fisher, R25001) and 100 uM of norbelladine (for round two) and grown at 37° C. for 7 h. Following incubation, 0.5 μl of culture was diluted into 1 ml LB medium, from which 100 μl was further diluted into 900 μl LB medium. Three hundred microliters of this mixture was then plated across three LB agar plates (100 μL per plate) containing carbenicillin, chloramphenicol and 4NB dissolved in DMSO. Plates were incubated overnight at 37° C. The following day, the brightest colonies were picked and grown overnight in 1 ml LB medium containing appropriate antibiotics in a 96-deep-well plate sealed with an AeraSeal film at 37° C. A glycerol stock of cells containing pSELIS-RamR and pReg-RamR encoding the template RamR variant was also inoculated into 5 ml LB for overnight growth.
The following day, 20 μl of each culture was used to inoculate two separate wells in a new 96-deep-well plate containing 900 μl LB medium. Additionally, eight separate wells containing 1 ml LB medium were inoculated with 20 μl of the overnight culture expressing the parental RamR variant. After 2 h of growth at 37° C., the top half of the 96-well plate was induced with 100 μl LB medium containing 10 μl DMSO, whereas the bottom half of the plate was induced with 100 μl LB medium containing 4NB dissolved in 10 μl DMSO. The concentration of 4NB used for induction is typically the same concentration used in the LB agar plate for screening during that particular round of evolution. Cultures were grown for an additional 4 h at 37° C. and 250 r.p.m. and subsequently centrifuged (3,500 g, 4° C., 10 min). Supernatant was removed, and cell pellets were resuspended in 1 ml PBS. One hundred microliters of the cell resuspension for each condition was transferred to a 96-well microtiter plate, from which the fluorescence (excitation, 485 nm; emission, 509 nm) and absorbance (600 nm) were measured using the Tecan Infinite M1000 plate reader. Clones with the highest signal-to-noise ratio (generally the top 5-10% of the screened clones) were then sequenced and subcloned into a fresh pReg-RamR vector.
For sensor variant validation, the subcloned pReg-RamR vectors expressing the sensor variants were transformed into DH10B cells expressing Pramr-GFP. […]
Glycerol stocks (20% glycerol) of strains containing the plasmids of interest were inoculated into 1 ml LB medium and grown overnight at 37° C. […] The cell resuspension (100 μl) for each condition was transferred to a 96-well microtiter plate, from which the fluorescence (excitation, 485 nm; emission, 509 nm) and absorbance (600 nm) were measured using the Tecan Infinite M1000 plate reader.

[2] = HPLC and LC/MS analysis of in vivo Nb4OMT reaction supernatant; assay type: cell-based, Escherichia coli; conditions: 3-OMe-norbelladine identified as minor component
Method: Assay samples were filtered using a 0.2-um PTFE syringe filter prior to running the HPLC. The measurement of Norbelladine and 4-O'Methyl-norbelladine was performed using a Vanquish HPLC system (Thermo Fisher Scientific) equipped with a BDS Hypersil TM C18 (3.0×150 mm 2, 3 um) (Thermo Fisher Scientific) with detection wavelength 277 nm. The mobile phase consisted of 0.1% formic acid in water or 0.1% formic acid in acetonitrile over the course of 28 minutes under the following conditions: 10% organic (vol/vol) for 2 minutes, 10 to 30% organic (vol/vol) for 13 minutes, 30 to 90% organic (vol/vol) for 0.1 minutes, 90% organic (vol/vol) for 4.9 minutes, 90 to 10% organic (vol/vol) for 1 minute, and 10% organic (vol/vol) for 7 minutes. The flow rate was fixed at 0.8 ml min-1. A standard curve for norbelladine was prepared using synthesized norbelladine (see Chemical synthesis and NMR analysis of norbelladine). A standard curve for 4-O'Methyl-norbelladine was prepared using commercially available 4-O'Methyl-norbelladine.
Cells containing the plasmid expressing each Nb4OMT variant with the P150-RBS (RiboJ) promoter were transformed and plated onto an LB agar plate containing appropriate antibiotics. […]
Samples were analyzed using an Agilent 6530 Q-TOF LC-MS with a dual Agilent Jet Stream electrospray ionization source in positive mode. […]

[3] = Steady state kinetics of purified Nb4OMT variants; assay type: biochemical
Method: Reactions for kinetics measurements were performed in triplicate for all enzyme variants. For each variant 1.5 ml reactions containing 3.5 nM of enzyme, 500 μM SAM, 2 mM CaCl2), and 15.625, 31.25, 62.5, 125, 250, or 500 μM norbelladine in PBS pH 7.5 were incubated at 37° C. for 4 hours. Every hour a 200 μl aliquot of each reaction was quenched by pipetting it into a 1.5 ml microcentrifuge tube with 20 μl of 2M HCl. The concentration of 4′-O-Methylnorbelladine was then determined using HPLC as described.
Kinetic data were fit in KinTek Explorer simulation and data fitting software v11 (Roy, 2018). The following minimal model was used as an input. Each line represents a step in the model and the forward reaction goes from left to right while the reverse reaction goes from right to left as written. • (1) E+S=ES • (2) ES=EP • (3) EP=E+P • (4) S=P2
3.5 nM enzyme and 15.625, 31.25, 62.5, 125, 250, and 500 M substrate. The output observable was defined as EP+P. Substrate oxidation was modeled in step (4) as irreversible with a best fit value from globally fitting data from all variants to derive k4=0.00547 min^−1.To get kout/Km and kcat: k−1, k−2, and k−3 were locked at 0 min-1 (irreversible reactions). k+3 was locked at 10,000 min-1 as to not limit the rate of turnover. k+1 and k+2 were used as variable parameters in the fitting. Under these conditions, k+2=kcat and k+1=kcat/Km. For estimates of 95% confidence intervals on kinetic parameters, confidence contour analysis was used with the FitSpace function in KinTek Explorer (Bhattacharya, 2015). Confidence contour plots are calculated by systematically varying a single rate constant and holding it fixed at a particular value while refitting the data, allowing other rate constants to float. The goodness of fit was scored by the resulting χ^2 value. The confidence interval is defined based on a threshold in χ^2 calculated from the F-distribution based on the number of data points and number of variable parameters to give the 95% confidence limits. For the data given in FIGS. 20A-20C, this threshold was 0.85 to estimate the upper and lower limits for each parameter. […] We then fit the data for these two variants to the model shown below, accounting for substrate inhibition.
As before, k+1 was allowed to float in the fitting to give kcat/Km, and k−1 was locked at 0 min^−1, k+2 was allowed to float in the fitting to give kcat, and k−2 was locked at 0 min^−1. k+3 was locked at 10,000 min^−1, and k−3 was locked at 0 min^−1. k+4 and k+6 were locked at 100 μM^−1 min^−1, and k−4 and k−6 were allowed to float in the fitting as linked parameters. k+5 was linked to k+1 and k−5 was locked at 0 min^−1. k−7 was locked at 0 min^−1, and k+7 was locked at 0.00547 min^−1.

[4] = Differential scanning fluorimetry; assay type: physicochemical; conditions: 5 μM protein, SYPRO Orange
Method: Purified Nb4OMT variants in the concentration of 5 μM were prepared in 96-well low-profile PCR plates (ABgene, Thermo Scientific). 10×SYPRO® Orange (Molecular Probes) was added into each well and mixed prior to measurement in an RT-PCR machine (LightCycler 480, Roche). The protein melting experiments were carried out with a continuous temperature acquisition mode using 10 acquisitions per 1° C. in each cycle from 20° C. to 95° C. The melting curves of the Nb4OMT variants were monophasic and Tm values were derived using Boltzmann equation.

B1: 4NB1.2: RamR variant bearing two amino acid substitutions, K63T and L66M (protein)
chain: MVARPKSEDKKQALLEAATQAIAQSGIAASTAVIARNAGVAEGTLFRYFATKDELINTLYLHLTQDMCQSMIMELDRSITDAKMMTRFIWNSYISWGLNHPARHRAIRQLAVSEKLTKETEQRADDMFPELRDLCHRSVLMVFMSDEYRAFGDGLFLALAETTMDFAARDPARAGEYIALGFEAMWRALTREEQ
modifications: Description of sequence: Improved biosensor variant K63T, L66M
[1]
  selectivity for 4NB over norbelladine: 20 fold

B2: 4NB2.1: evolved RamR biosensor variant, K63T, L66M, C134D and S137G (protein)
chain: MVARPKSEDKKQALLEAATQAIAQSGIAASTAVIARNAGVAEGTLFRYFATKDELINTLYLHLTQDMCQSMIMELDRSITDAKMMTRFIWNSYISWGLNHPARHRAIRQLAVSEKLTKETEQRADDMFPELRDLDHRGVLMVFMSDEYRAFGDGLFLALAETTMDFAARDPARAGEYIALGFEAMWRALTREEQ
modifications: Description of sequence: Improved biosensor variant K63T, L66M, C134D, S137G
[1]
  selectivity for 4NB over norbelladine: over 80 fold
  sensitivity relative to the HPLC method: approximately 10 fold
[1]; 4NB
  limit of detection: approximately 2.5 uM

B3: Wild-type Nb4OMT: natural norbelladine 4′-O-Methyltransferase from Narcissus pseudonarcissus (protein)
chain: MGASIDDYSLVHKNILHSEDLLKYILETSAYPREHEQLKGLREVTEKHEWSSALVPADEGLFLSMLLKLMNAKRTIEIGVYTGYSLLTTALALPEDGKITAIDVNKSYYEIGLPFIQKAGVEHKINFIESEALPVLDQMLEEMKEEDLYDYAFVDADKSNYANYHERLVKLVRIGGAILYDNTLWYGSVAYPEYPGLHPEEEVARLSFRNLNTFLAADPRVEISQVSIGDGVTICRRLY
modifications: Description of sequence: Natural enzyme, norbelladine 4'-O-Methyltransferase
notes: natural norbelladine 4′-O-Methyltransferase from Narcissus pseudonarcissus
[2]
  regiospecificity: not highly regiospecific
[3]; 3.5 nM enzyme, 500 μM SAM, 37° C., PBS pH 7.5
  kcat: 1.22 s⁻¹
[3]; calculated by dividing kcat by kcat/Km
  Km: 62 µM
[4]
  Tm: 52.8 °C
